These results are taken from patent US20160346402A1 (Bayer, published 2016).

The target of assay [1] is T1, TPP-2610, TweakR-ECD-34-68-hIgGFc-His-S41A (human).
T1 construct: Used as HEK293 supernatant; also called S41A mutein
The assay is described as follows: alanine scan ELISA: IgG coated 1 µg/ml, HEK293 supernatant of TWEAKR(34-68)-Fc construct, anti-HIS-HRP. (In general: ELISA stands for enzyme-linked immunosorbent assay.)

The target of assay [2] is T2, TPP-2621, TweakR-ECD-34-68-hIgGFc-His-H60A (human).
T2 construct: Used as HEK293 supernatant; also called H60A mutein
Described as above.

Assay [3] deals with T3, TPP-2623, TweakR-ECD-34-68-hIgGFc-His-D62A (human).
T3 construct: Used as HEK293 supernatant; also called D62A mutein
The description is as above.

Assay [4] deals with T4, TPP-2616, TweakR-ECD-34-68-hIgGFc-His-D51A (human).
T4 construct: Used as HEK293 supernatant; also called D51A mutein
The description is as above.

Assay [5] has as its target T5, TPP-2609, TweakR-ECD-34-68-hIgGFc-His-S40A (human).
T5 construct: Used as HEK293 supernatant; also called S40A mutein
The description is as above.

Assay [6] addresses T6, TPP-2611, TweakR-ECD-34-68-hIgGFc-His-W42A (human).
T6 construct: Used as HEK293 supernatant; also called W42A mutein (34-68)
Described as above.

For assay [7], the target named is T7, TPP-2624, TweakR-ECD-34-68-hIgGFc-His-F63A (human).
T7 construct: Used as HEK293 supernatant; also called F63A mutein
Described as above.

In assay [8] the target is T8, TPP-2619, TweakR-ECD-34-68-hIgGFc-His-R58A (human).
T8 construct: Used as HEK293 supernatant; also called R58A mutein
The description is as above.

The target of assay [9] is T9, TPP-2622, TweakR-ECD-34-68-hIgGFc-His-S61A (human).
T9 construct: Used as HEK293 supernatant; also called S61A mutein
The description is as above.

For assay [10], the target named is T10, TPP-2617, TweakR-ECD-34-68-hIgGFc-His-S54A (human).
T10 construct: Used as HEK293 supernatant; also called S54A mutein
The description is as above.

Assay [11] deals with T11, TPP-2607, TweakR-ECD-34-68-hIgGFc-His-S37A (human).
T11 construct: Used as HEK293 supernatant; also called S37A mutein
Described as above.

Assay [12] concerns the target T12, TPP-2620, TweakR-ECD-34-68-hIgGFc-His-P59A (human).
T12 construct: Used as HEK293 supernatant; also called P59A mutein
Described as above.

Assay [13] concerns the target T13, TPP-2608, TweakR-ECD-34-68-hIgGFc-His-R38A (human).
T13 construct: Used as HEK293 supernatant; also called R38A mutein
The description is as above.

The target of assay [14] is T14, TPP-2625, TweakR-ECD-34-68-hIgGFc-His-L65A (human).
T14 construct: Used as HEK293 supernatant; also called L65A mutein
Described as above.

In assay [15] the target is T15, TPP-2615, TweakR-ECD-34-68-hIgGFc-His-K48A (human).
T15 construct: Used as HEK293 supernatant; also called K48A mutein
Described as above.

The target in assay [16] is T16, TPP-2612, TweakR-ECD-34-68-hIgGFc-His-S43A (human).
T16 construct: Used as HEK293 supernatant; also called S43A mutein
The description is as above.

The target in assay [17] is T17, TPP-2618, TweakR-ECD-34-68-hIgGFc-His-R56A (human).
T17 construct: Used as HEK293 supernatant; also called R56A mutein
The description is as above.

For assay [18], the target named is T18, TPP-2613, TweakR-ECD-34-68-hIgGFc-His-D45A (human).
T18 construct: Used as HEK293 supernatant; also called D45A mutein
The description is as above.

In assay [19] the target is T19, TPP-2202, TWEAKR-ECD-28-80-hIgGFc-His (human).
T19 construct: also called TWEAKR-Fc fusion protein; full-length ectodomain Fc fusion
The assay is described as follows: ELISA: TPP-2202 (TWEAKR 28-80-Fc) coated at 1 µg/ml; biotinylated IgG at 0.08 µg/ml (open bars) and 0.3 µg/ml (solid bars; legend of FIG. 3 prints 0.03); streptavidin-HRP, Amplex Red; Y = signal [Rfu]. On the procedure: FIG. 3: Interaction of the TWEAKR ectodomain with antibodies and reference antibodies. […] Detection was carried out using streptavidin-HRP and Amplex Red substrate.
Detection was carried out using streptavidin-HRP and Amplex Red substrate. IgGs were biotinylated using an about 2-fold molar excess of biotin-LC-NHS (Pierce; Cat. No. 21347) according to the instructions of the manufacturer and desalted using Zeba desalting columns (Pierce; Cat. No. 89889).

The target of assay [20] is T20, TPP-2614, TweakR-ECD-34-68-hIgGFc-His-D47A (human).
T20 construct: also called D47A mutein
The assay is described as follows: ELISA: IgG coated at 1 µg/ml; 8-fold diluted HEK293 supernatant with the TWEAKR(34-68)-Fc-His mutein added; anti-HIS-HRP, Amplex Red; signal [Rfu]. On the procedure: These TWEAKR(34-68) Fc muteins were expressed in HEK293 cells. To obtain dose-reaction data, IgGs were coated at a concentration of 1 μg/ml onto a 384-well Maxisorp ELISA plate, and a serial 2-fold dilution of the supernatant comprising the TWEAKR mutein was used as soluble binding partner. Detection was carried out using anti-HIS-HRP and Amplex Red.

T19 sequence (chain, as listed by the source limits assumed): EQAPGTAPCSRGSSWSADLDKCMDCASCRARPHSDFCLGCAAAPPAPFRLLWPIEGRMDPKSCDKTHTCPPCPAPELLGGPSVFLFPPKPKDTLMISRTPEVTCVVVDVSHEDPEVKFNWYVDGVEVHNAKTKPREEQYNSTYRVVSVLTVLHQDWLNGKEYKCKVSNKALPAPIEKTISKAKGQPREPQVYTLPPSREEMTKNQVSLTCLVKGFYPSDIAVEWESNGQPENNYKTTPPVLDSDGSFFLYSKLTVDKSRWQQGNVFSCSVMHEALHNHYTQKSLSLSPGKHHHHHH

B1: P4A8(TPP-1324) (antibody, human IgG1, kappa, V domains shown)
VH: QVQLVQSGAEVKKPGASVKVSCKGSGYTFTDYGMHWVRQAPGQGLEWMGVISTYNGYTNYNQKFKGRVTMTVDKSTSTAYMELRSLRSDDTAVYYCARAYYGNLYYAMDYWGQGTLVTVSS
VL: DIVLTQSPASLAVSLGQRATISCRASKSVSTSSYSYMHWYQQKPGQPPKLLIKYASNLESGVPARFSGSGSGTDFSLNIHPMEEDDTAMYFCQHSRELPFTFGGGTKLEIKR
notes: Comparative antibody; variable domains from WO2009/140177 with human IgG1 constant region added
Consider B1, for which the binding result in [1], in [2], in assay [3], in assay [4], in assay [5] and in [6] was “no binding” throughout. In addition, the binding result in [7], in assay [8], in [9], in assay [10], in assay [11] and in assay [12] was “no binding” each time. Further, the binding result in assay [13], in [14], in [15], in assay [16], in [17] and in assay [18] was “no binding” in each case. Moreover, the binding result in assay [19] is listed as “binds”.

B2: PDL-192(TPP-1104) (antibody, human IgG1, kappa, V domains shown)
VH: QVELVESGGGLVQPGGSLRLSCAASGFTFSSYWMSWVRQAPGKGLEWVAEIRLKSDNYATHYAESVKGRFTISRDDSKNSLYLQMNSLRAEDTAVYYCTGYYADAMDYWGQGTLVTVSS
VL: DIQMTQSPSSLSASVGDRVTITCRASQSVSTSSYSYMHWYQQKPGKAPKLLIKYASNLESGVPSRFSGSGSGTDFTLTISSLQPEDFATYYCQHSWEIPYTFGGGTKVEIKR
notes: Comparative antibody; variable domains from WO2009/020933 with human IgG1 constant region added
As to B2, in assay [20], the binding result is “binds”.
